Experimental data taken from paper PMC6592955.
Each block holds one substance with its values, some of them ahead of it.

Key:
[1] = target: calmodulin (CaM) (UniProt P0DP26); assay: 2pFLIM-FRET in single dendritic spines; conditions: reference: wild type
[2] = target: mEGFP-CaMKIIα^T305A/T306A (Rattus norvegicus) (UniProt P11275); assay: FRET or BRET; 2pFLIM-FRET in single dendritic spines of CA1 pyramidal neurons, organotypic hippocampal slices; single glutamate uncaging pulse; room temperature; decay fitted with a single exponential; T286A in slices of Camk2a^T286A knock-in mice
[3] = target: mEGFP-CaMKIIα^T286A (Rattus norvegicus) (UniProt P11275); assay: as above
[4] = target: mEGFP-CaMKIIα^T286A (Rattus norvegicus) (UniProt P11275); assay: FRET or BRET; 2pFLIM-FRET in single dendritic spines of CA1 pyramidal neurons, organotypic hippocampal slices; glutamate uncaging at near physiological temperature (34–35 °C); Supplementary Fig. 2
[5] = target: mEGFP-CaMKIIα (wildtype) (Rattus norvegicus) (UniProt P11275); assay: FRET or BRET; 2pFLIM-FRET in single dendritic spines of CA1 pyramidal neurons, organotypic hippocampal slices; single glutamate uncaging pulse; room temperature; decay fitted with a single exponential; T286A in slices of Camk2a^T286A knock-in mice
[6] = target: mEGFP-CaMKIIα (wildtype) (Rattus norvegicus) (UniProt P11275); assay: FRET or BRET; 2pFLIM-FRET in single dendritic spines of CA1 pyramidal neurons, organotypic hippocampal slices; glutamate uncaging at near physiological temperature (34–35 °C); Supplementary Fig. 2

- other: dissociation time constant ([1]; sites T286): weaker; reference 2.9 ± 0.3
- other: fast dissociation time constant ([1]; sites T286): weaker; reference 3.2 ± 0.6
Substance: CaMKIIα (from UniProt P11275) T286A

- other: dissociation time constant ([1]; sites T305,T306): stronger; reference 2.9 ± 0.3
- other: fast dissociation time constant ([1]; sites T305,T306): stronger; reference 3.2 ± 0.6
Substance: CaMKIIα (from UniProt P11275) T305A/T306A

Substance: mCherry-CaM (from UniProt P0DP26 1-149) (natural protein)
- dissociation time constant (tau) [2]: 7.5 s
- dissociation time constant (tau) [3]: 1.2 s
- dissociation time constant (tau) [4]: 0.3 s

Substance: mCherry-CaM (from UniProt P0DP26 1-149) (natural protein; other documents disagree on this pair)
- dissociation time constant (tau) [5]: 2.9 s
- koff [5]: 0.33 s⁻¹
- dissociation time constant (tau) [6]: 0.4 s
